Assay results published in patent US20250060359A1, “FUSION PROTEINS AND METHODS FOR MONITORING FIBRONECTIN MATRIX ASSEMBLY” (The Trustees of Princeton University, priority 2023, published 2025).
Where no end group is shown, it is not given here.

Key:
FN fibrils [1] = molecular target: T1, FN fibrils (Mus musculus, UniProt P11276); assay: Phage clones incubated with growing fibroblast cultures actively assembling matrix; overlap of phage and FN signal; format: cell-based; settings: for Manders' coefficient with a higher concentration of phage: high concentration phage stocks
T1 construct: endogenous in cells; host or cells: NIH 3T3 fibroblasts
T1 sequence (P11276 33-2477): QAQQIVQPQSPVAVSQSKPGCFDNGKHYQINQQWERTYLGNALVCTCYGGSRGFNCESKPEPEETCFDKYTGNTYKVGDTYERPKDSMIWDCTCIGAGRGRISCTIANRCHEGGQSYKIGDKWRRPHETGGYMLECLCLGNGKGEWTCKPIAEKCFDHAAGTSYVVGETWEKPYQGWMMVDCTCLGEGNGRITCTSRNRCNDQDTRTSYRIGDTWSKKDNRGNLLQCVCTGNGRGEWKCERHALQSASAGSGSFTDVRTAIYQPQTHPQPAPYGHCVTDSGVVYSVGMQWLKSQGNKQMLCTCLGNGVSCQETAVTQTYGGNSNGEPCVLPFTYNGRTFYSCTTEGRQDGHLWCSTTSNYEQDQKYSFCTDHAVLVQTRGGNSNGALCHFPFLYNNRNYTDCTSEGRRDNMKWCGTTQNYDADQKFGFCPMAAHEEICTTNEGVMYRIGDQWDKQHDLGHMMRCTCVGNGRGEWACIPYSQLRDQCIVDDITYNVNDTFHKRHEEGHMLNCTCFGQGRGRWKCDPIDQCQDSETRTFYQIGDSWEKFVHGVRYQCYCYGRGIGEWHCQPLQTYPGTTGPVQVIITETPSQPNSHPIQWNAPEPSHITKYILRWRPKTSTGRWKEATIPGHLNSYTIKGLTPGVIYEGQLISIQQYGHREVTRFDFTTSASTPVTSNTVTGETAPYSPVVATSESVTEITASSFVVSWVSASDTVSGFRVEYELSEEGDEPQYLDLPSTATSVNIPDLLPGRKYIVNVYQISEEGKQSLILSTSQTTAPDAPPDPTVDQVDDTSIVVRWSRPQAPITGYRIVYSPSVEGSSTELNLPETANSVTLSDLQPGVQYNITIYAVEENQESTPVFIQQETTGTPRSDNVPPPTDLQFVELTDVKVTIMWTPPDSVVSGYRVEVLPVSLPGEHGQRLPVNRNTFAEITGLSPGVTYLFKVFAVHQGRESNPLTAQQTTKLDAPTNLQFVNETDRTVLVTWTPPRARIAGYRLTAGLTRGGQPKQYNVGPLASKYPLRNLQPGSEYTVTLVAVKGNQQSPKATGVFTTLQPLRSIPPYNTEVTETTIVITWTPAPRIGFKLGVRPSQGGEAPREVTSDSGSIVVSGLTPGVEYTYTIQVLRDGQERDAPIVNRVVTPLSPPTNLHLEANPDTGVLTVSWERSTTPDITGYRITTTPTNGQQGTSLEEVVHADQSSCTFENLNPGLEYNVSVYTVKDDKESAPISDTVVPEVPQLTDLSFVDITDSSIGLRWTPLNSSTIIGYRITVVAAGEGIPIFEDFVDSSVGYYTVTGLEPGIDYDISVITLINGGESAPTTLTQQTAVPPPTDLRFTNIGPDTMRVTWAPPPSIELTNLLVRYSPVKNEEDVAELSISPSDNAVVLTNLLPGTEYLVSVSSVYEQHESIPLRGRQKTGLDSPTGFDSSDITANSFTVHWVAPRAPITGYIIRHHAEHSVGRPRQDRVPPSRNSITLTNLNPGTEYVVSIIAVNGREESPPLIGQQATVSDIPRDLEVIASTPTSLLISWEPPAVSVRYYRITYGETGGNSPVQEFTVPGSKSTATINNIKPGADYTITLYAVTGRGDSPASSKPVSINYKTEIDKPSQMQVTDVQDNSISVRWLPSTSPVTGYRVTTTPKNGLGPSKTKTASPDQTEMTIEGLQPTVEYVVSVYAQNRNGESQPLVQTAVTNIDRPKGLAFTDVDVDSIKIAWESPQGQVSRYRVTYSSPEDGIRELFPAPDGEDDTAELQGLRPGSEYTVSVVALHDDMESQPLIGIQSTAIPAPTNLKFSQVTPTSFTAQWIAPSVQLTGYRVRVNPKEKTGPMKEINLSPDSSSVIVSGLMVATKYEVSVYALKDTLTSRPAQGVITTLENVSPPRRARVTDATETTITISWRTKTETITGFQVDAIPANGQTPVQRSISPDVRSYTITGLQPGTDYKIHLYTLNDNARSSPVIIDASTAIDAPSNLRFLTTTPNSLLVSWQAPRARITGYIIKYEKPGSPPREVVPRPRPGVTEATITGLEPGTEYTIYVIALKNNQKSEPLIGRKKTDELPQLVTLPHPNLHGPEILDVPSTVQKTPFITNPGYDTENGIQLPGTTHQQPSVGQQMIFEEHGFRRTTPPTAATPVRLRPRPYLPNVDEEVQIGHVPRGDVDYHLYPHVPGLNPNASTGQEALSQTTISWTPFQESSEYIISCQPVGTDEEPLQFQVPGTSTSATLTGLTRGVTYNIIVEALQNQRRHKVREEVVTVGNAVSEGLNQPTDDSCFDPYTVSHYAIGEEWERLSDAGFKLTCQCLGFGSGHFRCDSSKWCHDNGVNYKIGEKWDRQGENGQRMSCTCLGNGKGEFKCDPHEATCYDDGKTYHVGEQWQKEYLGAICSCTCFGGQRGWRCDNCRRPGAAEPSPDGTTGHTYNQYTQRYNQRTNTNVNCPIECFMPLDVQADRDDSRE
Procedure: (§1) FIGS. 4A-4C are representative photomicrographs of fixed and stained assembled matrices after clone 2 (1×10^12 pfu/mL) was incubated with NIH 3T3 fibroblasts for 2 days, and specifically stained for FN (4A) and phage (4B), as well as a merge of the two images (4C). Insets in 4A and 4B are maximum intensity projections of a single fibril obtained through confocal microscopy from the S2 condition for FN (4A) and phage (4B).
Phage S2 and S2-based phages, effectively label fibrils as they are being assembled.
(§2) To further analyze the interaction between the isolated phages and FN fibrils, each phage clone was incubated with growing fibroblast cultures that were actively assembling matrix. Monolayers were then stained for both phage and FN and resulting images were analyzed to assess the amount of overlap between phage and FN signal. […] To quantify the extent of phage overlap with FN fibrils, Manders' coefficients were generated, which define the percent overlap between the two image channels. Manders' coefficients reveled the percent overlap of the phage fluorescence with FN was highest for clone S2 (Manders' coefficient 0.91). A summary of all Manders' coefficients and phage characterizations can be found in Table 2.
Clone 2 staining was extremely robust and images of matrix assembled in the presence of a higher concentration of phage appeared to have more coverage of fibrils by phage. […] For clone 12, it appears that adding more phage led to higher background staining. […] This is further supported by confocal images depicting a single fibril from a clone 2 incubation in which there is significant overlap between phage and FN at the level of a single fibril.

FN fibrils [2] = molecular target: T1, FN fibrils; assay: Fusion proteins tested in fibroblast culture for FN fibril binding; format: cell-based
Procedure: (§3) Following purification using glutathione affinity chromatography, the fusion proteins was tested in fibroblast culture to determine if they maintained the properties seen in the phage.

FN matrix accumulation = assay: Fusion proteins tested in fibroblast culture for impact on matrix accumulation; format: cell-based
Procedure: as §3

FN fibrils [3] = molecular target: T1, FN fibrils; assay: Phage binding to FN fibrils of fixed confluent NIH 3T3 fibroblasts (co-staining for M13 phage and FN); format: cell-based
Procedure: Confluent NIH 3T3 fibroblasts, which have been well characterized to assemble a dense, fibrillar FN matrix, were used to test phage binding to FN fibrils. Cells were fixed, blocked, and incubated with individual phage clones, then co-stained with antibodies to M13 phage and FN and imaged. Most phage-monolayers looked like the negative control and contained infrequent phage signals that were not aligned with the FN matrix. Several of the clones generated a pattern of phage staining that had some co-localization with FN fibrils but also appeared to contain some phage aggregates.

FN matrix assembly = assay: FN matrix accumulation in the presence of phage clones (immunofluorescence, immunoblots of DOC-insoluble FN); format: cell-based
Excerpt: Beyond the ability of the isolated phage clones to bind FN matrix, their potential capacity to modulate matrix accumulation was considered. Given that the clones were panned against a FN fragment containing the assembly domain, it was questioned if they might modulate FN matrix assembly.

FN matrix = assay: Immunoblot comparing effects of S3 and S20 against a control on formation of FN matrix (FIG. 2); format: cell-based
Procedure: FIG. 2 is an immunoblot comparing the effects of S3 and S20 against a control on the formation of FN matrix.
Referring to FIG. 2, when incubated with cells during matrix assembly, S20 can enhance matrix formation by 60%.

[4] = substrate: FN matrix (fibronectin fibrils) assembled by NIH 3T3 fibroblasts (UniProt P11276); assay: phage incubated with fibroblasts assembling matrix; overlap of phage fluorescence with FN stain
Sequence of FN matrix (fibronectin fibrils) assembled by NIH 3T3 fibroblasts (UniProt P11276) (P11276 33-2477 limits assumed): as the sequence (P11276 33-2477) above

[5] = substrate: FN matrix (fibronectin fibrils) assembled by NIH 3T3 fibroblasts (UniProt P11276); assay: cell-based or functional assay
[6] = molecular target: T2, FN matrix (fibronectin fibrils) assembled by NIH 3T3 fibroblasts (UniProt P11276 33-2477, limits assumed); assay: phage incubated with fibroblasts assembling matrix; overlap of phage fluorescence with FN stain
T2 construct: whole, on cells; Fibrillar, cell-assembled fibronectin matrix; also called FN fibrils
T2 sequence (P11276 33-2477 limits assumed): as the sequence (P11276 33-2477) above
Procedure: as §1, with “(1×10¹²” for “(1×10^12”
as §2

## DYSYFDLWYSDT [Clone 12, 29]
FN fibrils [1]
  Manders' coefficient with a higher concentration of phage: the Manders' coefficient did not indicate higher coverage with inclusion of more phage

## GST-S3-GFP: fusion protein of GST, S3 peptide and GFP (NHVALWGTGTAS; not fully specified (N-terminus, C-terminus); also: fusion protein, GST dimerising)
FN fibrils [2]
  FN fibril binding: no detectable FN fibril binding
FN matrix accumulation
  impact on matrix accumulation: neither the S3 or S20 fusion proteins showed any matrix binding capacity or impact on matrix accumulation

## GST-S20-GFP: fusion protein of GST, S20 peptide and GFP (SDITPWWLLAQD; not fully specified (N-terminus, C-terminus); also: fusion protein, GST dimerising)
FN fibrils [2]
  FN fibril binding: no detectable FN fibril binding
FN matrix accumulation
  impact on matrix accumulation: neither the S3 or S20 fusion proteins showed any matrix binding capacity or impact on matrix accumulation

## GSYDWTKLPGLE [Clone 2, 16, 31, 48]
FN fibrils [3]
  pattern of phage staining, co-localization with FN matrix: created a fibrillar pattern that colocalized with the FN matrix better than the other phages
FN fibrils [1]
  Manders' coefficient with a higher concentration of phage: maintenance of the high Manders' coefficient
FN fibrils [1]; overlap of the phage fluorescence with FN, growing fibroblast cultures
  Manders' Coefficient: 0.91
FN fibrils [1]; phage incubated with fibroblasts as they assembled fibrils
  labeling of FN fibrils with incorporated phage: complete labeling of FN fibrils with incorporated phage
FN matrix assembly
  FN matrix accumulation by immunofluorescence: did not appear to impact FN matrix assembly

## NHVALWGTGTAS [Clone 3, 5, 27, 28]
FN matrix assembly
  FN matrix accumulation by immunofluorescence: without repressing FN matrix immunofluorescence signal

## NHVALWGTGTAS [Clone S3]
FN matrix
  effect on matrix formation: inhibits matrix formation

## S2-GFP: GST-S2-GFP after cleavage of the GST tag (GSYDWTKLPGLE; not fully specified (C-terminus)) [Clone S2-GFP]
FN fibrils [2]
  FN fibril binding: completely ablated FN fibril binding

## SDITPWWLLAQD [Clone 20, 21, 46]
FN matrix assembly
  FN matrix accumulation by immunofluorescence: increased FN matrix assembly by two-fold

## SDITPWWLLAQD [Clone S20]
FN matrix
  effect on matrix formation: enhances matrix formation
FN matrix; incubated with cells during matrix assembly
  enhancement of matrix formation: 60%

B1: M13 phage clone 37 displaying … (peptide, not shown: large carriers)
chain: WHVALTGNNLER
modifications: not fully specified
[4]
  Manders' Coefficient: 0.698

B2: M13 phage clone 11 displaying … (peptide, not shown: large carriers)
chain: DHVSLSGRSAAM
modifications: not fully specified
[4]
  Manders' Coefficient: 0.173

B3: M13 phage clone 20 (20, 21, 46) displaying … (S20) (peptide, not shown: large carriers)
chain: SDITPWWLLAQD
modifications: not fully specified
[5]
  matrix formation (FIG. 2 immunoblot): 60%
[4]
  Manders' Coefficient: 0.552

B4: M13 phage clone 19 (19, 24, 32, 41, 45) displaying … (peptide, not shown: large carriers)
chain: DHIPLRGQRVWQ
modifications: not fully specified
[4]
  Manders' Coefficient: 0.397

B5: M13 phage clone 39 displaying YSTTMWQYLPGA (peptide)
chain: YSTTMWQYLPGA
modifications: not fully specified (C-terminus)
notes: Whole phage particle stood in the assay; not shown: pIII protein of M13 phage; the peptide is its N-terminal fusion
[6]
  Manders' Coefficient: 0.677

B6: M13 phage clone 2 (2, 16, 31, 48) displaying GSYDWTKLPGLE (S2) (peptide)
chain: GSYDWTKLPGLE
modifications: not fully specified (C-terminus)
notes: Whole phage particle stood in the assay; also called clone S2; clone s2; not shown: pIII protein of M13 phage; the peptide is its N-terminal fusion
[6]
  Manders' Coefficient: 0.913

B7: M13 phage clone 7 (7, 22, 38) displaying AHB… (peptide, not shown: large carriers)
chain: AHXRLSGSAPMF-{pIII (M13 phage)}
modifications: not fully specified
[4]
  Manders' Coefficient: 0.39

B8: M13 phage clone 1 displaying … (peptide, not shown: large carriers)
chain: VSGYNVMPLNGD
modifications: not fully specified
[4]
  Manders' Coefficient: 0.253

B9: M13 phage clone 4 (4, 44) displaying … (peptide, not shown: large carriers)
chain: HNQTMWWTFPST
modifications: not fully specified
[4]
  Manders' Coefficient: 0.47

B10: M13 phage clone 9 (9, 42) displaying … (peptide, not shown: large carriers)
chain: HWSGTHALSGRA
modifications: not fully specified
[4]
  Manders' Coefficient: 0.588

B11: M13 phage clone 3 (3, 5, 27, 28) displaying … (S3) (peptide, not shown: large carriers)
chain: NHVALWGTGTAS
modifications: not fully specified
[4]
  Manders' Coefficient: 0.527

B12: M13 phage clone 6 (6, 35) displaying … (peptide, not shown: large carriers)
chain: SITEFNLLPGLW
modifications: not fully specified
[4]
  Manders' Coefficient: 0.606

B13: M13 phage clone 23 displaying … (peptide, not shown: large carriers)
chain: YVTNWGSLSGSY
modifications: not fully specified
[4]
  Manders' Coefficient: 0.675

B14: M13 phage clone 33 displaying … (peptide, not shown: large carriers)
chain: IAYPTDMSLSYK
modifications: not fully specified
[4]
  Manders' Coefficient: 0.56

B15: M13 phage clone 12 (12, 29) displaying DYSYFDLWYSDT (peptide)
chain: DYSYFDLWYSDT
modifications: not fully specified (C-terminus)
notes: as for B5
[6]
  Manders' Coefficient: 0.746
